Reference: patent US20060052296A1 (TEMPLE UNIVERSITY OF THE COMMONWEALTH SYSTEM OF HIGHER …, published 2006)

B1: YFP-agnoprotein (other)
chain: MVLRQLSRKASVKVSKTWSGTKKRAQRILIFLLEFLLDFCTGEDSVDGKKRQRHSGLTEQTYSALPEPKAT
notes: also called GFP-Agnoprotein; fusion agnoprotein
B2: in vitro synthesized [35S]-labeled agnoprotein (other)
chain: B1 chain
notes: also called in vitro translated [35S]-labeled agnoprotein

Assays:
[1] = biological target: p53 in NIH 3T3 cell protein extract (mouse (endogenous in mouse fibroblast …, UniProt P02340 1-390)); assay: co-immunoprecipitation with anti-p53 antibody pAb 421, Western blot with rabbit anti-Agno
p53 in NIH 3T3 cell protein extract (mouse, sequence (P02340 whole entry): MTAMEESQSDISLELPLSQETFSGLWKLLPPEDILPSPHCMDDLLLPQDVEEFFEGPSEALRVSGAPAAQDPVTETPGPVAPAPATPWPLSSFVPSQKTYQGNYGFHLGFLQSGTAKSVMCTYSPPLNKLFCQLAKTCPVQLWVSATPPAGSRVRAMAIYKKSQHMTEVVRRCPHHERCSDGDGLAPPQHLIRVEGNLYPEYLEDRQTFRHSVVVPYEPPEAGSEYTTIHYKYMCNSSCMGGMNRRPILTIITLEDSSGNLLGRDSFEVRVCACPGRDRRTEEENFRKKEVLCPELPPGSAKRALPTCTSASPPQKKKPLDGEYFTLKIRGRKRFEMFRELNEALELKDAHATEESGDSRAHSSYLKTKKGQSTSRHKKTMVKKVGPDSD

[2] = biological target: T1, GST alone (UniProt P08515 1-218 = GST); assay: GST pull-down from NIH 3T3 cell extract, Western blot with anti-agnoprotein antibody
T1 sequence (P08515 whole entry): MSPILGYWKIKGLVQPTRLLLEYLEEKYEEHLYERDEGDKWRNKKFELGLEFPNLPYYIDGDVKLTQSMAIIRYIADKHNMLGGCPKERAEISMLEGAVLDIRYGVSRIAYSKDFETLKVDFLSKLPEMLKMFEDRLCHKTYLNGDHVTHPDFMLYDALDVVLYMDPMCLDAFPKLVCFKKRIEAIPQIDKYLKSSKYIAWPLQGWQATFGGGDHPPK

[3] = biological target: T1, GST alone; assay: GST pull-down, autoradiography

| Binder | binding result [1] | binding result [2] | binding result [3] |
| --- | --- | --- | --- |
| B1 | binds | no binding | – |
| B2 | – | – | no binding |
